Laboratory results published in US8778880.

Assays:
[1] = target: T1, rat GHR (L43R) on BAF3 cells (clone 2E2-2B12-F4) (rat) (UniProt P16310); test: cell-based or functional assay
T1 sequence (looked up): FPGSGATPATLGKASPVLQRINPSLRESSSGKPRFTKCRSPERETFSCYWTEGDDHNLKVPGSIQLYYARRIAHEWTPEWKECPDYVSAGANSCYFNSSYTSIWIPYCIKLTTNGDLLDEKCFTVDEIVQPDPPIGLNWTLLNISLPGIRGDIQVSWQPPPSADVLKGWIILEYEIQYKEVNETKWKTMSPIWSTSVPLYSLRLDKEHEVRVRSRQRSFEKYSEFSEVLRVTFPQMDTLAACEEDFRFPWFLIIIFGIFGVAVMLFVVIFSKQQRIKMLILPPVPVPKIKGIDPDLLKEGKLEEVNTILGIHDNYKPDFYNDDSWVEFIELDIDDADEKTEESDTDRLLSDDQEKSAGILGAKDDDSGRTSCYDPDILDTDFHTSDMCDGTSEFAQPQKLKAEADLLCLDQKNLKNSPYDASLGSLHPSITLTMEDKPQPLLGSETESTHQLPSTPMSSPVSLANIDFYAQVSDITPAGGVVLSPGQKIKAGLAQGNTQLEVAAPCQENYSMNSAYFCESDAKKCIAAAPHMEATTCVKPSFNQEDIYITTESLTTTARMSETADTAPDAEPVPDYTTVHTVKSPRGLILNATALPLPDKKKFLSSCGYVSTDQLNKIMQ

[2] = target: human growth hormone receptor on IM-9 cells (human) (UniProt P10912); test: cell-based or functional assay
Chain of UniProt P10912 (P10912 19-638): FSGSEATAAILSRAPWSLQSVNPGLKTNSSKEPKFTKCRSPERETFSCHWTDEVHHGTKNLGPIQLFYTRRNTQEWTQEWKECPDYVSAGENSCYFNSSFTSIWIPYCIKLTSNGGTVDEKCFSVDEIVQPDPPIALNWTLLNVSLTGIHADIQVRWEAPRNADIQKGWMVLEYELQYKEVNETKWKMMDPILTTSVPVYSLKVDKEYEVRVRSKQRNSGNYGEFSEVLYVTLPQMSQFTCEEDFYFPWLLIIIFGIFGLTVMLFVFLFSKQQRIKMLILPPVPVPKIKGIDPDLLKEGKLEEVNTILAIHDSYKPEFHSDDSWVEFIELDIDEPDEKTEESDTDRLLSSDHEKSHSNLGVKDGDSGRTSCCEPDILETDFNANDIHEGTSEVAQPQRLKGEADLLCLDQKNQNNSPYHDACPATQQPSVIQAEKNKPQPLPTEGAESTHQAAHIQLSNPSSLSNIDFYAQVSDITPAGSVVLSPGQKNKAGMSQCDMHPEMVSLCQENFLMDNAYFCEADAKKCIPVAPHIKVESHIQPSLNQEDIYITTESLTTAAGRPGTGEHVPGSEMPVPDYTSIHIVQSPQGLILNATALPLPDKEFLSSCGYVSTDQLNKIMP

hGH G131pAF-30KPEG (from UniProt P01241 27-217) (ligand)
Proliferation EC50 (BrdU, rat GHR (L43R) BAF3 cells) (nM (head); WHO hGH expressed as unity) [1]: 4.6
pSTAT5 EC50 (IM-9) (nM (head); WHO hGH expressed as unity) [2]: 23.8

hGH R134pAF-20KPEG (from UniProt P01241 27-217) (ligand)
pSTAT5 EC50 (IM-9) (nM (head); WHO hGH expressed as unity) [2]: 5.3

hGH Y143pAF-30KPEG (from UniProt P01241 27-217) (ligand)
Proliferation EC50 (BrdU, rat GHR (L43R) BAF3 cells) (nM (head); WHO hGH expressed as unity) [1]: 6.6
pSTAT5 EC50 (IM-9) (nM (head); WHO hGH expressed as unity) [2]: 12.3

hGH K145pAF-30KPEG (from UniProt P01241 27-217) (ligand)
Proliferation EC50 (BrdU, rat GHR (L43R) BAF3 cells) (nM (head); WHO hGH expressed as unity) [1]: 5.3
pSTAT5 EC50 (IM-9) (nM (head); WHO hGH expressed as unity) [2]: 20.6

hGH Y35pAF-40KPEG (from UniProt P01241 27-217) (ligand)
Proliferation EC50 (BrdU, rat GHR (L43R) BAF3 cells) (nM (head); WHO hGH expressed as unity) [1]: 24
pSTAT5 EC50 (IM-9) (nM (head); WHO hGH expressed as unity) [2]: 53.3
